The target in this experiment is T1, TNFR-1 CRD2 72-116 (Homo sapiens, UniProt P19438).
T1 chain: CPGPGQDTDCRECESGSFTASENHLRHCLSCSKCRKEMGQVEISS
The experiment in a line: grating-coupled interferometry.

Bridges are numbered along the chain shown (N, C = ends). Where no end group is shown, it is not given here. [ ]: non-standard residue; d: D form.

B1: d-TCPB (peptide)
chain: [dC](cysteinyl)[dF][dH][dC][dI][dW][dL]G[dD][dE][dC]
modifications: disulfide 4-11; also: CRD2 with C-terminal biotin linker
As to B1, the Kd is 1000 nM.

The record behind these values is PMC10885103 (2023).
